T1: RrXyl43A (Rhizophlyctis rosea, UniProt A0A2U8LMQ1)
T1 construct: full-length 325 residues, no native signal peptide; codon-optimized in pPICZalphaA with alpha-factor signal, His-tagged, Pichia pastoris KM71H; theoretical 39 kDa with tag; active as monomer; not N-glycosylated
T1 sequence (A0A2U8LMQ1 1-325): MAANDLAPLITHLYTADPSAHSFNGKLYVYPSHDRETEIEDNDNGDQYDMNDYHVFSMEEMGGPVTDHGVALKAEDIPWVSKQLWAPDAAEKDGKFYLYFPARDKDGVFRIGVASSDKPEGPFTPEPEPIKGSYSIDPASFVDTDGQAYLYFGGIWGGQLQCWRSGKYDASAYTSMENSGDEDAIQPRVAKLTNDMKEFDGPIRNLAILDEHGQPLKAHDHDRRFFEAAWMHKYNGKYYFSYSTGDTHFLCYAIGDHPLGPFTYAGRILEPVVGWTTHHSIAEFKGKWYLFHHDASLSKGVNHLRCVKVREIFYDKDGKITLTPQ

B1: RrXyl43A (Rhizophlyctis rosea) (protein)
chain: MAANDLAPLITHLYTADPSAHSFNGKLYVYPSHDRETEIEDNDNGDQYDMNDYHVFSMEEMGGPVTDHGVALKAEDIPWVSKQLWAPDAAEKDGKFYLYFPARDKDGVFRIGVASSDKPEGPFTPEPEPIKGSYSIDPASFVDTDGQAYLYFGGIWGGQLQCWRSGKYDASAYTSMENSGDEDAIQPRVAKLTNDMKEFDGPIRNLAILDEHGQPLKAHDHDRRFFEAAWMHKYNGKYYFSYSTGDTHFLCYAIGDHPLGPFTYAGRILEPVVGWTTHHSIAEFKGKWYLFHHDASLSKGVNHLRCVKVREIFYDKDGKITLTPQ
notes: full-length 325 residues, no native signal peptide; codon-optimized in pPICZalphaA with alpha-factor signal, His-tagged, Pichia pastoris KM71H; theoretical 39 kDa with tag; active as monomer; not N-glycosylated

Tests used:
[1] = molecular target: T1, RrXyl43A; test: residual pNPX hydrolysis, absorbance […] nm; assay type: biochemical; conditions: read-out: % residual activity at 100 mM
[2] = substrate: O=[N+]([O-])c1ccc(O[C@@H]2OC[C@@H](O)[C@H](O)[C@H]2O)cc1; test: purified protein; assay type: biochemical, Rhizophlyctis rosea; conditions: McIlvaine buffer pH 7, 25 °C, 10 min

Molecule | remaining activity at 100000 µM [1] | Km [2] | Vmax [2] | kcat [2]
OC1OC[C@@H](O)[C@H](O)[C@H]1O (stereo partly shown) [xylose] | 51% |  |  | 
B1 |  | 1340 ± 170 µM | 34.6 µmol/min/mg | 21.2 ± 0.89 s⁻¹

Reference: PMC6373445, “Identification and characterization of GH11 xylanase and GH43 xylosidase from the chytridiomycetous fungus, Rhizophlyctis rosea” (Applied Microbiology and Biotechnology, 2018)
